According to the PETadex activity labels (doi:10.1016/j.bbalip.2005.11.003):

B1: unnamed (protein)
chain: MLHLVCLALLCHVARGLPTQASHNAQPVINLGYARYQGVRLEAGVDEFLGMRYASPPIGDLRFRAPQDPPANQTLQSATEYGPICIGLDEEESPGDISEDCLFINVFKPSTATSQSKLPVWLFIQGGGYAENSNANYNGTQVIQASDDVIVFVTFNYRVGALGFLASEKVRQNGDLNAGLLDQRKALRWVKQYIEQFGGDPDHIVIHGVSAGAGSVAYHLSAYGGKDEGLFIGAIVESSFWPTQRTVSEMEFQFERFVNDTGCSSARDSLECLREQDIATIQKGNTGSPFPGGSSSPLPDWYFLPVTDGSLVPDELYNAFDAGNFIKVPVLVGDDTDEGSNFAYNASSSADVSRFFKNNYPNLTSQQLNEINQVYPRGKLLPRHAAYFGASSAAYGDATFTCPGNHVASSAARYLPNSVWNYRVNIIDESNIAGGIGVPHTFELPAIFGAGSTGTLSSDSSYLTYNAAIIPVTMHYFISFVQTLNPNTYRYATAPEWNTWGNGQRLRLQTNDTAMEAVPESSLQDCAFWKSLTVPMEV
B2: unnamed (protein)
chain: MRSSLVLFFVSAWTALASPIRREVSQDLFNQFNLFAQYSAAAYCGKNNDAPAGTNITCTGNACPEVEKADATFLYSFEDSGVGDVTGFLALDNTNKLIVLSFRGSRSIENWIGNLNFDLKEINDICSGCRGHDGFTSSWRSVADTLRQKVEDAVREHPDYRVVFTGHSLGGALATVAGADLRGNGYDIDVFSYGAPRVGNRAFAEFLTVQTGGTLYRITHTNDIVPRLPPREFGYSHSSPEYWIKSGTLVPVTRNDIVKIEGIDATGGNNQPNIPDIPAHLWYFGLIGTCL
B3: unnamed (protein)
chain: MWLLPLVLTSLASSATWAGQPASPPVVDTAQGRVLGKYVSLEGLAQPVAVFLGVPFAKPPLGSLRFAPPQPAEPWSFVKNTTSYPPMCCQDPVVEQMTSDLFTNGKERLTLEFSEDCLYLNIYTPADLTKRGRLPVMVWIHGGGLVLGGAPMYDGVVLAAHENVVVVAIQYRLGIWGFFSTGDEHSRGNWGHLDQVAALHWVQENIANFGGDPGSVTIFGESAGGESVSVLVLSPLAKNLFHRAISESGVALTVALVRKDMKAAAKQIAVLAGCKTTTSAVFVHCLRQKSEDELLDLTLKMKFLTLDFHGDQRESHPFLPTVVDGVLLPKMPEEILAEKDFNTVPYIVGINKQEFGWLLPTMMGFPLSEGKLDQKTATSLLWKSYPIANIPEELTPVATDKYLGGTDDPVKKKDLFLDLMGDVVFGVPSVTVARQHRDAGAPTYMYEFQYRPSFSSDKKPKTVIGDHGDEIFSVFGFPLLKGDAPEEEVSLSKTVMKFWANFARSGNPNGEGLPHWPMYDQEEGYLQIGVNTQAAKRLKGEEVAFWNDLLSKEAAKKPPKIKHAEL
B4: unnamed (protein)
chain: MVLKQRANYLGFLIVFFTAFLVEAVPIKRQSNSTVDSLPPLIPSRTSAPSSSPSTTDPEAPAMSRNGPLPSDVETKYGMALNATSYPDSVVQAMSIDGGIRAATSQEINELTYYTTLSANSYCRTVIPGATWDCIHCDATEDLKIIKTWSTLIYDTNAMVARGDSEKTIYIVFRGSSSIRNWIADLTFVPVSYPPVSGTKVHKGFLDSYGEVQNELVATVLDQFKQYPSYKVAVTGHSLGGATALLCALDLYQREEGLSSSNLFLYTQGQPRVGDPAFANYVVSTGIPYRRTVNERDIVPHLPPAAFGFLHAGEEYWITDNSPETVQVCTSDLETSDCSNSIVPFTSVLDHLSYFGINTGLCT
B5: unnamed (protein)
chain: AEVCYSHLGCFSDEKPWAGTSQRPIKSLPSDPKKINTRFLLYTNENQNSYQLITATDIATIKASNFNLNRKTRFIIHGFTDSGENSWLSDMCKNMFQVEKVNCICVDWKGGSKAQYSQASQNIRVVGAEVAYLVQVLSTSLNYAPENVHIIGHSLGAHTAGEAGKRLNGLVGRITGLDPAEPYFQDTPEEVRLDPSDAKFVDVIHTDISPILPSLGFGMSQKVGHMDFFPNGGKDMPGCKTGISCNHHRSIEYYHSSILNPEGFLGYPCASYDEFQESGCFPCPAKGCPKMGHFADQYPGKTNAVEQTFFLNTGASDNFTRWRYKVTVTLSGEKDPSGNINVALLGKNGNSAQYQVFKGTLKPDASYTNSIDVELNVGTIQKVTFLWKRSGISVSKPKMGASRITVQSGKDGTKYNFCSSDIVQENVEQTLSPC
B6: unnamed (protein)
chain: MLDMPIDPVYYQLAEYFDSLPKFDQFSSAREYREAINRIYEERNRQLSQHERVERVEDRTIKGRNGDIRVRVYQQKPDSPVLVYYHGGGFVICSIESHDALCRRIARLSNSTVVSVDYRLAPEHKFPAAVYDCYDATKWVAENAEELRIDPSKIFVGGDSAGGNLAAAVSIMARDSGEDFIKHQILIYPVVNFVAPTPSLLEFGEGLWILDQKIMSWFSEQYFSREEDKFNPLASVIFADLENLPPALIITAEYDPLRDEGEVFGQMLRRAGVEASIVRYRGVLHGFINYYPVLKAARDAINQIAALLVFD
B7: unnamed (protein)
chain: MLPLWTLSLLLGAVAGKEVCYERLGCFSDDSPWSGITERPLHILPWSPKDVNTRFLLYTNENPNNFQEVAADSSSISGSNFKTNRKTRFIIHGFIDKGEENWLANVCKNLFKVESVNCICVDWKGGSRTGYTQASQNIRIVGAEVAYFVEFLQSAFGYSPSNVHVIGHSLGAHAAGEAGRRTNGTIGRITGLDPAEPCFQGTPELVRLDPSDAKFVDVIHTDGAPIVPNLGFGMSQVVGHLDFFPNGGVEMPGCKKNILSQIVDIDGIWEGTRDFAACNHLRSYKYYTDSIVNPDGFAGFPCASYNVFTANKCFPCPSGGCPQMGHYADRYPGKTNDVGQKFYLDTGDASNFARWRYKVSVTLSGKKVTGHILVSLFGNKGNSKQYEIFKGTLKPDSTHSNEFDSDVDVGDLQMVKFIWYNNVINPTLPRVGASKIIVETNVGKQFNFCSPETVREEVLLTLTPC

Substrate: triacetin
Conditions: pH 7; 25 °C

Row | Protein | Km [mM] | kcat [s⁻¹] | kcat/Km [M⁻¹ s⁻¹]
1 | B1 | 15 | 265 | 17700
2 | B3 | 3 | 60 | 20000
3 | B4 | 210 | 10 | 47.6
4 | B5 | 120 | 555 | 4630
5 | B6 | 10 | 40 | 4000
6 | B7 | 190 | 8 | 42.1

Substrate: tripropionin
Conditions: pH 7; 25 °C

Row | Protein | Km [mM] | kcat [s⁻¹] | kcat/Km [M⁻¹ s⁻¹]
7 | B1 | 0.35 | 60 | 171000
8 | B2 | 14 | 225 | 16100
9 | B3 | 0.3 | 50 | 167000
10 | B4 | 18 | 200 | 11100
11 | B5 | 10.5 | 750 | 71400
12 | B6 | 0.3 | 110 | 367000
13 | B7 | 8 | 3320 | 415000

Substrate: vinyl acetate
Conditions: pH 7; 25 °C

Row | Protein | Km [mM] | kcat [s⁻¹] | kcat/Km [M⁻¹ s⁻¹]
14 | B1 | 3 | 400 | 133000
15 | B2 | 280 | 455 | 1630
16 | B3 | 4 | 315 | 78800
17 | B4 | 120 | 950 | 7920
18 | B5 | 295 | 70 | 237
19 | B6 | 4 | 50 | 12500
20 | B7 | 315 | 170 | 540

Substrate: vinyl butyrate
Conditions: pH 7; 25 °C

Row | Protein | Km [mM] | kcat [s⁻¹] | kcat/Km [M⁻¹ s⁻¹]
21 | B1 | 2 | 25 | 12500
22 | B2 | 20 | 2600 | 130000
23 | B3 | 2 | 460 | 230000
24 | B4 | 15 | 5390 | 359000
25 | B5 | 20 | 200 | 10000
26 | B6 | 2.5 | 210 | 84000
27 | B7 | 25 | 625 | 25000

Substrate: vinyl propionate
Conditions: pH 7; 25 °C

Row | Protein | Km [mM] | kcat [s⁻¹] | kcat/Km [M⁻¹ s⁻¹]
28 | B1 | 3 | 160 | 53300
29 | B2 | 100 | 1950 | 19500
30 | B3 | 5 | 295 | 59000
31 | B4 | 35 | 3680 | 105000
32 | B5 | 50 | 270 | 5400
33 | B6 | 7 | 200 | 28600
34 | B7 | 75 | 800 | 10700

Substrate: p-NP-C4
Conditions: pH 7; 25 °C

Row | Protein | Km [mM] | kcat [s⁻¹] | kcat/Km [M⁻¹ s⁻¹]
35 | B2 | 2.5 | 580 | 232000
36 | B3 | 0.08 | 18 | 225000
37 | B4 | 2.1 | 420 | 200000
38 | B5 | 1 | 50 | 50000
39 | B6 | 0.04 | 140 | 3.5e+06

Substrate: tributyrin
Conditions: pH 7; 25 °C

Row | Protein | Km [mM] | kcat [s⁻¹] | kcat/Km [M⁻¹ s⁻¹]
40 | B2 | 0.5 | 2250 | 4.5e+06
41 | B3 | 0.05 | 70 | 1.4e+06
42 | B4 | 0.45 | 1080 | 2.4e+06
43 | B5 | 0.45 | 1500 | 3.33e+06
44 | B6 | 0.05 | 95 | 1.9e+06
45 | B7 | 0.4 | 7890 | 1.97e+07

Substrate: vinyl laurate
Conditions: pH 7; 25 °C

Row | Protein | Km [mM] | kcat [s⁻¹] | kcat/Km [M⁻¹ s⁻¹]
46 | B2 | 4 | 12000 | 3e+06
47 | B4 | 2 | 5400 | 2.7e+06
48 | B5 | 1.25 | 125 | 100000
49 | B7 | 4 | 375 | 93800
